Experimental findings from US20170035903A1 (GAMAMABS PHARMA, published 2017) are described below.

Test [1] deals with T1, human anti-Müllerian hormone type II receptor (AMHR-II) on COV434 cells (human, UniProt Q16671 18-573).
T1 construct: Receptor at the surface of the COV434 AMHR-II transfected line (about 20000 receptors) or the COV434 WT line (about 2000 receptors); also called AMHR2; AMHR-II surface receptor
T1 sequence: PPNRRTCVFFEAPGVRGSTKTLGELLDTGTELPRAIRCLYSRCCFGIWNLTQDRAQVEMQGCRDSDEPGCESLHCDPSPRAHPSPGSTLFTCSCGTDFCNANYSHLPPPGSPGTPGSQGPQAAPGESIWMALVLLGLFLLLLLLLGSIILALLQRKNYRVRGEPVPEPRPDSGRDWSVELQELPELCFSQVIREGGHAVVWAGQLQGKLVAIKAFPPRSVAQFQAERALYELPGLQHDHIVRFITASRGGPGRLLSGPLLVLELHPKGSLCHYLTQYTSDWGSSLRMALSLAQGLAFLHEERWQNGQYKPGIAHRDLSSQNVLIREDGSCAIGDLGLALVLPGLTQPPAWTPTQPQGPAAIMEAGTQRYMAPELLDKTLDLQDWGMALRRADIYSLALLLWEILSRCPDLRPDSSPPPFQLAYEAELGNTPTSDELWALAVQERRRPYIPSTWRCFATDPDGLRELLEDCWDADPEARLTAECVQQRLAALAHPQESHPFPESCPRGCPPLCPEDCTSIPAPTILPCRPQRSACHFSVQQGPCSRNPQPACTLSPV
The test can be described thus: flow cytometry on COV434 WT cells, antibody at 10 µg/ml. The procedure: B) FACS histogram profiles of COV434WT staining at 10 μg/ml of antibodies. C) Percentage of COV434 WT cell staining with the antibodies.
(§1) The COV434 AMHR-II transfected and the COV434 WT cell lines were maintained in DMEM/GlutaMax (Gibco) supplemented with 10% FBS, penicillin 100 U/ml and Streptomycin 100 μg/ml. Geneticin at 666 μg/ml was added for the COV434 AMHR-II transfected cell line. […] After washes, Phycoerythrin-conjugated anti-human IgG antibody (1:200, Beckman-Coulter) was added for 1 hour at room temperature. FACS analysis of the resuspended cells was done on a BD Accuri™ C6 flow cytometer (BD Bioscience).
(§2) FACS analysis with COV434-AMHR-II transfected cell line is described in FIG. 16. […] The binding capacity of these variants was also assayed on the low expressing AMHR-II COV434 WT cell line.

Test [2] addresses T2, AMHR-II-ECD-Fc (R&D System) (human, UniProt Q16671 18-149).
T2 construct: Bought construct; also called recombinant AMHR-II; AMHR-II recombinant protein; not shown: Fc part of the bought AMHR-II-ECD-Fc (R&D System)
The test can be described thus: SPR (Bia3000), AMHR-II-ECD-Fc immobilised on CM5, antibody injected, Langmuir 1:1 fit. Here is the method: (§3) Immobilization of AMHRII was performed on a Bia3000 apparatus at 25° C. in HBS-EP (HEPES 10 mM, NaCl 150 mM, EDTA 3 mM, P20 surfactant 0.005%) at […] flow rate on CM5 sensor chip using EDC/NHS (1-Ethyl-3-3-dimethylaminopropyl carbodiimidehydrochloride) activation according to the manufacturer's instructions (GEHealthcare). Briefly, carboxyl functions of CM5 sensor chip were activated with 0.4M EDC/0.1M NHS during 7 min. A solution of AMHR-II-ECD-Fc (R&D System) at 2.5 μg/ml in sodium acetate buffer was injected during 12 min. An injection of 1M ethanolamine hydrochloride was used to neutralize the activation. […] A control reference surface was prepared using the same chemical treatment of without injection of AMHRII.
(§4) Antibodies at different concentrations (from 0.5 nM to 133 nM) were injected during 180s on AMHRII-coated flowcell and the control flowcell. After a dissociation step of 400s in running buffer, sensor surfaces were regenerated using 5 μl of Glycine-HCl pH1.7. All the sensorgrams were corrected by subtracting the low signal from the control reference surface. Kinetic parameters were evaluated from the sensorgrams using a Langmuir 1:1 fitting model on the BiaEvaluation 4.2 software.

Test [3] has as its target T2, AMHR-II-ECD-Fc (R&D System). The test can be described thus: SPR (Bia3000), AMHR-II-ECD-Fc immobilised; against parental murine 12G4. Here is the method:
as §3, §4

Test [4] has the same target. The test can be described thus: ELISA, 50 ng per well AMHR-II-ECD-Fc coated, HRP anti-human F(ab')2 detection. Here is the method: ELISA plates (96 wells, Maxisorp, NUnc) were coated overnight at +4° C. with 50 ng per well of AMHR-II-ECD-Fc (R&D System). Coated ELISA plates were blocked with PBS-BSA 4% for 2 hours at 37° C. and washed three times with PBS-Tween20 0.05%. […] The bound anti-AMHR-II antibodies were detected by adding HRP-conjugated F(ab′)2 goat anti-human F(ab′2) fragment specific (Interchim) diluted at 1:10000 and incubated for one hour at 37° C. Revelation was done with TMB (Sigma) and the reaction was stopped by adding H2SO4 1N (v:v). Absorbances were measured at 450 nm and binding data curves were analysis using GraphPad Prism.

Test [5] has as its target T1, human anti-Müllerian hormone type II …. The test can be described thus: flow cytometry on COV434 AMHR-II transfected cells, Hill slope fit. The procedure: (§5) Binding was determined by FACS analysis in the range of concentrations 0.034 to 8 μg/ml. Binding data curves were analyzed used specific binding with Hill slope equation from GraphPad Prism.
as §1, §2

Test [6] has the same target. The test can be described thus: flow cytometry on COV434 AMHR2 transfected cells, 0.034 to 8 µg/ml. The procedure: as §5, §1, §2
Test [7] shares this target. The test can be described thus: flow cytometry on COV434 AMHR-II transfected cells. Here is the method:
as §5, §1, §2

Changes are numbered by the printed parent chain. Numbers in names are those of the source.

B1: humanized low fucose 3C23K antibody (antibody, human IgG1, kappa, V domains shown)
VH: QVRLVQSGAEVKKPGASVKVSCKASGYTFTSYHIHWVRQAPGQRLEWMGWIYPGDDSTKYSQKFQGRVTITRDTSASTAYMELSSLRSEDTAVYYCTRGDRFAYWGQGTLVTVSS
VL: DIQMTQSPSTLSASVGDRVTITCRASSSVRYIAWYQQKPGKAPKLLTYPTSSLKSGVPSRFSGSGSGTEFTLTISSLQPDDFATYYCLQWSSYPWTFGGGTKVEIKR
notes: Humanized from murine 12G4, low fucose, prepared as in WO2011/141653A1; also called unconjugated 3C23K; 3C23K unconjugated; copies: 2 + 2
On to B1, for which, in test [1], the “percent of COV434 WT cells stained” value is 9.8%. In test [2], this molecule came in with a Ka of 1.81e+10 M⁻¹, an equilibrium dissociation constant (Kd) of 0.0553 nM, a koff of 6.93e-06 s⁻¹ and a kon of 125000 M⁻¹ s⁻¹. In addition, in test [3], the “fold higher association rate against 12G4” value was determined as 5 fold and the “fold lower dissociation rate against 12G4” value stood at 3 fold. Also, the concentration for a half-maximal effect (EC50) in test [4] stood at 0.018 nM. Besides, in test [5], the Kapparent was 2.2 µg/mL.

B2: K4D-24 (antibody, V domains shown)
VH: B1 VH with Q1R
VL: DIQMTQSPSTLSASVGDRVTITCRASSSVRYIAWYQQKPGKAPKLLTYPTSSLKSGVPSRFSGSGSGTEFTLTISSLQPDDFATYYCLQWSSYPWTFGGGTKVEIK
notes: Variant of 3C23K with H-Q1R (Kabat)
Turning to B2, in test [6], the “fold affinity improvement against 3C23K” value amounted to 22 fold. Further, the “percent of COV434 WT cells stained” value in test [1] is 76.8%. Besides, the “fold improvement of Kapparent against 3C23K” value in test [7] was found to be 20 fold. For the same molecule, the Kapparent in test [5] was determined as 0.098 µg/mL.

B3: 6C59 (antibody, V domains shown)
VH: B1 VH with Q1R
VL: B2 VL with S27P, S28P
notes: Variant of 3C23K with H-Q1R, L-S27P and L-S28P (Kabat)
In the case of B3, the “percent of COV434 WT cells stained” value in test [1] turned out to be 82.2%. For the same molecule, the “fold improvement of Kapparent against 3C23K” value in test [7] is 40 fold. Moreover, the Kapparent in test [5] was 0.05 µg/mL.

B4: murine 12G4 antibody (antibody, from another filing, V domains shown)
VH: QVQLQQSGPELVKPGASVRMSCKASGYTFTSYHIHWVKQRPGQGLEWIGWIYPGDDSTKYNEKFKGKTTLTADKSSSTAYMLLSSLTSEDSAIYFCTRGDRFAYWGQGTLVTVSA
VL: QIVLTQSPAIMSASLGEGITLTCSASSSVRYIHWYQQKSGTSPKLLIYSTSNLASGVPSRFSGSGSGTFHSLTISSVEAEDAADYYCLQWSSYPWTFGGGTKLEIK
In test [2], B4 showed a Ka of 1.27e+09 M⁻¹, a Kd of 0.788 nM, a dissociation rate constant (koff) of 2.28e-05 s⁻¹ and an on-rate constant (kon) of 28900 M⁻¹ s⁻¹.
